B1: Ceramide transfer protein (Homo sapiens), Q9Y5P4-2 (parent)
chain: MSDNQSWNSSGSEEDPETESGPPVERCGVLSKWTNYIHGWQDRWVVLKNNALSYYKSEDETEYGCRGSICLSKAVITPHDFDECRFDISVNDSVWYLRAQDPDHRQQWIDAIEQHKTESGYGSESSLRRHGSMVSLVSGASGYSATSTSSFKKGHSLREKLAEMETFRDILCRQVDTLQKYFDACADAVSKDELQRDKVVEDDEDDFPTTRSDGDFLHSTNGNKEKLFPHVTPKGINGIDFKGEAITFKATTAGILATLSHCIELMVKREDSWQKRLDKETEKKRRTEEAYKNAMTELKKKSHFGGPDYEEGPNSLINEEEFFDAVEAALDRQDKIEEQSQSEKVRLHWPTSLPSGDAFSSVGTHRFVQKVEEMVQNHMTYSLQDVGGDANWQLVVEEGEMKVYRREVEENGIVLDPLKATHAVKGVTGHEVCNYFWNVDVRNDWETTIENFHVVETLADNAIIIYQTHKRVWPASQRDVLYLSVIRKIPALTENDPETWIVCNFSVDHDSAPLNNRCVRAKINVAMICQTLVSPPEGNQEISRDNILCKITYVANVNPGGWAPASVLRAVAKREYPKFLKRFTSYVQEKTAGKPILF

Variants of: B1
Conditions: with samp_human APCS

Variant | effect of a mutation on the interaction
MSDNQSWNSSGSEEDPETESGPPVERCGVLSKWTNYIHGWQDRWVVLKNNALSYYKSEDETEYGCRGSICLSKAVITPHDFDECRFDISVNDSVWYLRAQDPDHRQQWIDAIEQHKTESGYGSESSLRRHGSMVSLVSGASGYSATSTSSFKKGHSLREKLAEMETFRDILCRQVDTLQKYFDACADAVSKDELQRDKVVEDDEDDFPTTRSDGDFLHSTNGNKEKLFPHVTPKGINGIDFKGEAITFKATTAGILATLSHCIELMVKREDSWQKRLDKETEKKRRTEEAYKNAMTELKKKSHFGGPDYEEGPNSLINEEEFFDAVEAALDRQDKIEEQSQSEKVRLHWPTSLPSGDAFSSVGTHRFVQKVEEMVQNHMTYSLQDVGGDANWQLVVEEGEMKVYRREVEENGIVLDPLKATHAVKGVTGHEVCNAAWNVDVRNDWETTIENFHVVETLADNAIIIYQTHKRVWPASQRDVLYLSVIRKIPALTENDPETWIVCNFSVDHDSAPLNNRCVRAKINVAMICQTLVSPPEGNQEISRDNILCKITYVANVNPGGWAPASVLRAVAKREYPKFLKRFTSYVQEKTAGKPILF [Y435A;F436A] | decreasing interaction strength
MSDNQSWNSSGSEEDPETESGPPVERCGVLSKWTNYIHGWQDRWVVLKNNALSYYKSEDETEYGCRGSICLSKAVITPHDFDECRFDISVNDSVWYLRAQDPDHRQQWIDAIEQHKTESGYGSESSLRRHGSMVSLVSGASGYSATSTSSFKKGHSLREKLAEMETFRDILCRQVDTLQKYFDACADAVSKDELQRDKVVEDDEDDFPTTRSDGDFLHSTNGNKEKLFPHVTPKGINGIDFKGEAITFKATTAGILATLSHCIELMVKREDSWQKRLDKETEKKRRTEEAYKNAMTELKKKSHFGGPDYEEGPNSLINEEEFFDAVEAALDRQDKIEEQSQSEKVRLHWPTSLPSGDAFSSVGTHRFVQKVEEMVQNHMTYSLQDVGGDANWQLVVEEGEMKVYRREVEENGIVLDPLKATHAVKGVTGHEVCAAFWNVDVRNDWETTIENFHVVETLADNAIIIYQTHKRVWPASQRDVLYLSVIRKIPALTENDPETWIVCNFSVDHDSAPLNNRCVRAKINVAMICQTLVSPPEGNQEISRDNILCKITYVANVNPGGWAPASVLRAVAKREYPKFLKRFTSYVQEKTAGKPILF [N434A;Y435A] | with no effect
MSDNQSWNSSGSEEDPETESGPPVERCGVLSKWTNYIHGWQDRWVVLKNNALSYYKSEDETEYGCRGSICLSKAVITPHDFDECRFDISVNDSVWYLRAQDPDHRQQWIDAIEQHKTESGYGSESSLRRHGSMVSLVSGASGYSATSTSSFKKGHSLREKLAEMETFRDILCRQVDTLQKYFDACADAVSKDELQRDKVVEDDEDDFPTTRSDGDFLHSTNGNKEKLFPHVTPKGINGIDFKGEAITFKATTAGILATLSHCIELMVKREDSWQKRLDKETEKKRRTEEAYKNAMTELKKKSHFGGPDYEEGPNSLINEEEFFDAVEAALDRQDKIEEQSQSEKVRLHWPTSLPSGDAFSSVGTHRFVQKVEEMVQNHMTYSLQDVGGDANWQLVVEEGEMKVYRREVEENGAVLDPLKATHAVKGVTGHEVCNYFWNVDVRNDWETTIENFHVVETLADNAIIIYQTHKRVWPASQRDVLYLSVIRKIPALTENDPETWIVCNFSVDHDSAPLNNRCVRAKINVAMICQTLVSPPEGNQEISRDNILCKITYVANVNPGGAAPASVLRAVAKREYPKFLKRFTSYVQEKTAGKPILF [I413A;W562A] | decreasing interaction strength

Other lines, results leading:

effect of a mutation on the interaction | Variant
disrupting interaction strength | MSDNQSWNSSGSEEDPETESGPPVERCGVLSKWTNYIHGWQDRWVVLKNNALSYYKSEDETEYGCRGSICLSKAVITPHDFDECRFDISVNDSVWYLRAQDPDHRQQWIDAIEQHKTESGYGSESSLRRHGSMVSLVSGASGYSATSTSSFKKGHSLREKLAEMETFRDILCRQVDTLQKYFDACADAVSKDELQRDKVVEDDEDDFPTTRSDGDFLHSTNGNKEKLFPHVTPKGINGIDFKGEAITFKATTAGILATLSHCIELMVKREDSWQKRLDKETEKKRRTEEAYKNAMTELKKKSHFGGPDYEEGPNSLINEEEFFDAVEAALDRQDKIEEQSQSEKVRLHWPTSLPSGDAFSSVGTHRFVQKVEEMVQNHMTYSLQDVGGDANWQLVVEEGEMKVYRREVEENGIVLDPLKATHAVKGVTGHEVCNYFWNVDVRNDWETTIENFHVVETLADNAIIIYQTHKRVWGQSQRDVLYLSVIRKIPALTENDPETWIVCNFSVDHDSAPLNNRCVRAKINVAMICQTLVSPPEGNQEISRDNILCKITYVANVNPGGWAPASVLRAVAKREYPKFLKRFTSYVQEKTAGKPILF [P474G;A475Q]
with no effect | MSDNQSWNSSGSEEDPETESGPPVERCGVLSKWTNYIHGWQDRWVVLKNNALSYYKSEDETEYGCRGSICLSKAVITPHDFDECRFDISVNDSVWYLRAQDPDHRQQWIDAIEQHKTESGYGSESSLRRHGSMVSLVSGASGYSATSTSSFKKGHSLREKLAEMETFRDILCRQVDTLQKYFDACADAVSKDELQRDKVVEDDEDDFPTTRSDGDFLHSTNGNKEKLFPHVTPKGINGIDFKGEAITFKATTAGILATLSHCIELMVKREDSWQKRLDKETEKKRRTEEAYKNAMTELKKKSHFGGPDYEEGPNSLINEEEFFDAVEAALDRQDKIEEQSQSEKVRLHWPTSLPSGDAFSSVGTHRFVQKVEEMVQNHMTYSLQDVGGDANWQLVVEEGEMKVYRREVEENGIVLDPLKATHAVKGVTGHEVCNYFWNVDVRNDWETTIENFHVVETLADNAIIIYQTHKRAAPASQRDVLYLSVIRKIPALTENDPETWIVCNFSVDHDSAPLNNRCVRAKINVAMICQTLVSPPEGNQEISRDNILCKITYVANVNPGGWAPASVLRAVAKREYPKFLKRFTSYVQEKTAGKPILF [V472A;W473A]

Variants of: B1
Conditions: with samp_human APCS
Remark: another data set of the same source

effect of a mutation on the interaction | Variant
decreasing interaction strength | MSDNQSWNSSGSEEDPETESGPPVERCGVLSKWTNYIHGWQDRWVVLKNNALSYYKSEDETEYGCRGSICLSKAVITPHDFDECRFDISVNDSVWYLRAQDPDHRQQWIDAIEQHKTESGYGSESSLRRHGSMVSLVSGASGYSATSTSSFKKGHSLREKLAEMETFRDILCRQVDTLQKYFDACADAVSKDELQRDKVVEDDEDDFPTTRSDGDFLHSTNGNKEKLFPHVTPKGINGIDFKGEAITFKATTAGILATLSHCIELMVKREDSWQKRLDKETEKKRRTEEAYKNAMTELKKKSHFGGPDYEEGPNSLINEEEFFDAVEAALDRQDKIEEQSQSEKVRLHWPTSLPSGDAFSSVGTHRFVQKVEEMVQNHMTYSLQDVGGDANWQLVVEEGEMKVYRREVEENGIVLDPLKATHAVKGVTGHEVCAAFWNVDVRNDWETTIENFHVVETLADNAIIIYQTHKRVWPASQRDVLYLSVIRKIPALTENDPETWIVCNFSVDHDSAPLNNRCVRAKINVAMICQTLVSPPEGNQEISRDNILCKITYVANVNPGGWAPASVLRAVAKREYPKFLKRFTSYVQEKTAGKPILF [N434A;Y435A]

— IntAct's records for PubMed 22396542
